Measured values taken from US20040175385A1 (University of California, published 2004).
Where two headings read alike, the source gives them in different places.

What was measured:
[1] = target: T1, BoNT/A HC, recombinant binding domain (C-terminal domain of the heavy chain) of botulinum neurotoxin type A (Clostridium botulinum, UniProt P0DPI0 860-1296)
[2] = target: T1, BoNT/A HC, recombinant binding domain …; experiment: SPR BIAcore, IgG on chip, BoNT/A HC in flow
[3] = target: BoNT/A HC, recombinant binding domain (C-terminal domain of the heavy chain) of botulinum neurotoxin type A (Clostridium botulinum, UniProt P0DPI0 860-1296); experiment: SPR BIAcore, HC on chip, scFv in flow
[4] = target: T1, BoNT/A HC, recombinant binding domain …; experiment: SPR BIAcore, scFv column of Table 6
[5] = target: T1, BoNT/A HC, recombinant binding domain …; experiment: SPR BIAcore, Hc on chip, scFv in flow
[6] = target: T1, BoNT/A HC, recombinant binding domain …; experiment: SPR BIAcore, HC on chip, scFv in flow; remark: listed apart in the source

Binder | Kd [2] [nM] | koff [2] [s⁻¹] | kon [2] [M⁻¹ s⁻¹] | Kd [4] [nM] | koff [4] [s⁻¹] | kon [4] [M⁻¹ s⁻¹] | Kd [5] [nM] | koff [5] [s⁻¹] | kon [5] [M⁻¹ s⁻¹] | Kd [6] [nM] | koff [6] [s⁻¹] | kon [6] [M⁻¹ s⁻¹] | other results
C25 IgG (chimeric IgG, murine V domains, human C domains) (antibody, V domains shown) VH: QVQLQESGGGLVKPGGSLKLSCAASGFTFSDYYMYWVRQTPEKRLEWVATISDGGSYTYYPDSVKGRFTISRDNAKNNLYLQMSSLKSEDTAMYYCSRYRYDDAMDYWGQGTTVTVSS VL: DIELTQSPASLAVSLGQRATISCRASESVDSYGHSFMQWYQQKPGQPPKLLIYRASNLEPGIPARFSGSGSGTDFTLTINPVEADDVATYYCQQSNEDPFTFGSGTKLEIKR | 1.69 | 0.00224 | 1.32e+06 | – | – | – | – | – | – | – | – | – | Kd [1]: 11 nM
3D12 IgG (fully human IgG) (antibody, V domains shown) VH: QVQLVQSGGGVVHPGRSLKLSCAGSGFTFSDYDMHWVRQAPGKGLEWVAVMWFDGTEKYSAESVKGRFTISRDNSKNTLFLQMNSLRADDTAVYYCAREPDWLLWGDRGALDVWGQGTTVTVSS VL: DIVMTQSPSTLSASVGDRVTITCRASQSISSWLAWYQQKPGKAPKLLMYEASSLESGVPSRFSGSGSGTEFTLTISSLQPDDFAAYYCQHYNTYPYTFGQGTKLEIK | 0.0562 | 0.000127 | 2.26e+06 | – | – | – | – | – | – | – | – | – | Kd [1]: 0.55 nM
scFv 2B6 (human, non-immune library, Tables 9 and 10) (scFv) VKLVESGPGLVKPSQSLSLTCTVTGYSITSDYAWNWIRQFPGNKLEWMGYINYDGSNNYNPSLKNRISITRDTSKNQFFLKLNSVTSEDTATYYCARAGDGYYVDWYFDVWGTGTTVIVSSGGGGSGGGGSGGGGSYIELTQSPASLAVSLGQRATTSCRASESVDSYGNSFMHWYQQKPGQPPKLLIYLASNLESGVPARFSGSGSRTDFTLTIDPVEADDAATYYCQQNNEDPYTFGGGTKLEIKS | – | – | – | – | – | – | – | – | – | – | – | – | Kd [3]: 71.5 nM; koff [3]: 0.0078 s⁻¹; kon [3]: 109000 M⁻¹ s⁻¹
scFv S25 (scFv) scFv: QVKLQQSGAELVRPGASVKLSCKASGYSLTSYWMNWVKQRPQGGLEWIGNIHPSDSDTRFNQKFEDKATLTVDTSSSTAYMQLSSPTSEDSAVYYCARGLYNGFWYFDVWGQGTTVTVSSGGGGSGGGGSGGGGSDIELTQSPALMAASPGEKVIITCSVSSSISSSNLHWYQQKSGTSPKPWIYGTSNLASQVPVRFSGSGSGTSYSLTISSMEAEDAATYYCQQWSSYPLTFGAGTKLEIKR | – | – | – | 73 | 0.00081 | 11000 | 73 | 0.00082 | 11000 | 73 | 0.00082 | 11000 | –
scFv C25 (scFv) scFv: QVQLQESGGGLVKPGGSLKLSCAASGFTFSDYYMYWVRQTPEKRLEWVATISDGGSYTYYPDSVKGRFTISRDNAKNNLYLQMSSLKSEDTAMYYCSRYRYDDAMDYWGQGTTVTVSSGGGGSGGGGSGGGGSDIELTQSPASLAVSLGQRATISCRASESVDSYGHSFMQWYQQKPGQPPKLLIYRASNLEPGIPARFSGSGSGTDFTLTINPVEADDVATYYCQQSNEDPFTFGSGTKLEIKR | – | – | – | 1.1 | 0.00033 | 300000 | 1.1 | 0.00033 | 300000 | 1.1 | 0.00033 | 300000 | –
scFv C39 (scFv) scFv: QVQLQESGGGSVKPGGSLKLSCAASGFTFSDYYMSWVRQTPEKRLEWVATISDGGSYTYYPDSVKGRFTISRDNAKNNLYLQMSSLKSEDTAIYYCVRYRYDEGLDYWGQGTTVTVSSGGGGSGGGGSGGGGSDIELTQSPASLAVSLGRRATISCRASESVDSYGHSFMHWYQQKPGQPPKLLIYLASNLESGVPARFSGSGSRTDFTLTIDPVEADDAATYYCQQNNEDPYTFGGGTKLEIKR | – | – | – | – | – | – | 2.3 | 0.00032 | 140000 | – | – | – | –
scFv 1F3 (scFv) scFv: EVQLQQSGARLVKPGASVKLSCKASGYTFTSFWMHWVKQRPGRGLEWIGRLDPNSGETKYNEKFKSKATLTVDKPSSTAYMELSSLTSEDSAVYYCAREAYGYWNFDVWGTGTTVTVSSGGGGSGGGGSGGGGSDIELTQSPASMSASPGEKVTMTCRATSSVSSSYLHWYQQKSGASPKLWIYSASNLASGVPSRFSGSGSGTSYLSTISSVEAEDAATYYCQQYIGYPYTFGGGTKLEIKR | – | – | – | – | – | – | 12 | 0.011 | 920000 | – | – | – | –
S25 IgG (chimeric IgG, murine V domains, human C domains) (antibody, V domains shown) VH: QVKLQQSGAELVRPGASVKLSCKASGYSLTSYWMNWVKQRPQGGLEWIGNIHPSDSDTRFNQKFEDKATLTVDTSSSTAYMQLSSPTSEDSAVYYCARGLYNGFWYFDVWGQGTTVTVSS VL: DIELTQSPALMAASPGEKVIITCSVSSSISSSNLHWYQQKSGTSPKPWIYGTSNLASQVPVRFSGSGSGTSYSLTISSMEAEDAATYYCQQWSSYPLTFGAGTKLEIKR | 3.9 | 0.0057 | 1.46e+06 | – | – | – | – | – | – | – | – | – | –
scFv 3D12 (human, immune library) (scFv) scFv: QVQLVQSGGGVVHPGRSLKLSCAGSGFTFSDYDMHWVRQAPGKGLEWVAVMWFDGTEKYSAESVKGRFTISRDNSKNTLFLQMNSLRADDTAVYYCAREPDWLLWGDRGALDVWGQGTTVTVSSGGGGSGGGGSGGGGSDIVMTQSPSTLSASVGDRVTITCRASQSISSWLAWYQQKPGKAPKLLMYEASSLESGVPSRFSGSGSGTEFTLTISSLQPDDFAAYYCQHYNTYPYTFGQGTKLEIK | – | – | – | 36.9 | 0.0005 | 13000 | – | – | – | 36.9 | 0.0005 | 13000 | –
